These are literature values, as cited in paper PMC10860761.

In one data set the target is actin monomer (ATP) (UniProt P60010).
The target in a further data set is actin monomer (ADP) (UniProt P60010).

Srv2/CAP CARP, sequence (P17555 369-526): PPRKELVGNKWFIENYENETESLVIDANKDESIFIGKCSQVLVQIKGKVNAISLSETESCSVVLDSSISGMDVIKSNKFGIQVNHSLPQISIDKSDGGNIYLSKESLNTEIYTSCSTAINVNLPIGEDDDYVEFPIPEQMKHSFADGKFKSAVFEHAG
Srv2/CAP WH2, sequence (P17555 287-336): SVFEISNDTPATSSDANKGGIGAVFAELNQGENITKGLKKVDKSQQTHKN

On to Srv2/CAP WH2 (from UniProt P17555), for which the Kd (usually the concentration at which binding is half-saturated) with actin monomer (ATP) is 1000 nM.

Turning to Srv2/CAP CARP (from UniProt P17555), the Kd with actin monomer (ADP) was 1500 nM.
